Kd data for three substances are collected here from PMC8591604, “Targeting Oncogenic Src Homology 2 Domain-Containing Phosphatase 2 (SHP2) by Inhibiting Its Protein–Protein Interactions” (Journal of Medicinal Chemistry, 2021).

The target in test [1] is N-SH2 domain of SHP2 (residues 2–111) (human) (UniProt Q06124). In words: fluorescence polarisation; fluorescence anisotropy, displacement: 0.10 nM CF-P9W5 (0.5 nM for P8 and OP) with […] N-SH2 titrated with unlabelled peptide; fluorescence buffer. A general note: Fluorescence polarisation rises when a labelled molecule tumbles more slowly, as on binding a larger partner.
The target is the same in test [2].
For test [3] the target is unchanged. This is another data set of the same source.

Where two headings read alike, the source gives them in different places.

For orientation: Kd means the constant that tells how readily two partners part at equilibrium. Read a low Kd as higher affinity. Take “P8W5, P8 analogue with W at position +5 (peptide)”: the Kd in test [1] was 1.6 nM. “CF-P9, fluorescently labeled IRS-1 pY1172 analogue (nine residues) (peptide)” yielded a Kd in test [2] of 53 nM. In turn, “CF-P9Y0, unphosphorylated analogue of the labeled IRS-1 pY1172 peptide” showed a Kd in test [3] of 6600 nM.
